Experiments:
[1] = target: IL13Rα2 expressed on the surface of human glioma cells (A172, N10, U251, U87, U118, U373, GBM12, GBM43) and in GBM tissue (human) (UniProt Q14627); test: flow cytometry on N10 glioma cells pre-incubated with 10x excess rhIL13 [left table]
[2] = target: IL13Rα2 expressed on the surface of human glioma cells (A172, N10, U251, U87, U118, U373, GBM12, GBM43) and in GBM tissue (human) (UniProt Q14627); test: flow cytometry on N10 glioma cells, isotype control [left table]
[3] = target: recombinant human IL13Rα2hFc chimera (R&D Systems) (human) (UniProt Q14627); test: SPR, Biacore 3000; mAb immobilised, rhIL13Rα2 in the flow; 1:1 model
[4] = target: Pngase F-treated rhIL13Rα2hFc (human) (UniProt Q14627); test: plate-bound ELISA on Pngase F-treated rhIL13Rα2hFc

Substance	% positive cells [1]	% positive cells [2]	Kd [3]	koff [3]	kon [3]	percent decrease of binding against untreated protein [4]
control mouse IgG (antibody)	0.9%	1.9%				
mAb to IL13Rα2 (clone 83807), R&D Systems (antibody)			104 nM	0.00231 s⁻¹	22300 M⁻¹ s⁻¹	80%
monoclonal antibody to IL13Rα2 (clone B-D13), Santa Cruz Biotechnology			46.1 nM	0.00499 s⁻¹	108000 M⁻¹ s⁻¹	
